Assay [1] deals with Factor X (Homo sapiens (Human)) (UniProt P00742).
The target of assay [2] is T1, Mesyl-dFPR-ACC.
T1 sequence (peptide, N-terminal mesyl; D-Phe at position 1 (dF); C-terminal ACC fluorophore): FPR

Substitutions are numbered along the chain they refer to. Names may count otherwise. “And” between values parts separate entries of the source, which are not always exact repeats. Identical values can stand only once.

In the case of “{Gla swap FIX/Q44S}/Q286R/M298Q-FVIIa (enzyme)”, in assay [1], the kcat/KM (M^-1s^-1), TF-dependent assay is 1.98e+08 M⁻¹ s⁻¹ and the kcat/KM, TF-independent assay is 729 M⁻¹ s⁻¹. This molecule also displayed an Activity (µmol/sec/µmol), specific activity for mesyl-dFPR-ACC (µmol/sec/µmol) in assay [2] of 1.11.

On to “A122N/G124S/A175S/S222A/H257A/Q286R/M298Q-FVIIa (enzyme)”, for which the kcat/KM, TF-dependent assay in assay [1] was 8.4e+07 M⁻¹ s⁻¹. Moreover, the Activity (µmol/sec/µmol), specific activity for mesyl-dFPR-ACC (µmol/sec/µmol) in assay [2] amounted to 1.99.

As for “Gla swap FIX/T239V/Q286R/M298Q-FVIIa (enzyme)”, the kcat/KM (M^-1s^-1), TF-dependent assay in assay [1] was 2.53e+08 M⁻¹ s⁻¹ and 1.79e+08 M⁻¹ s⁻¹. Moreover, the Activity (µmol/sec/µmol), specific activity for mesyl-dFPR-ACC (µmol/sec/µmol) in assay [2] worked out at 1.13.

Take “A122N/G124S/A175S/Q286R/M298Q-FVIIa (enzyme)”: in assay [1], the kcat/KM, TF-dependent assay was 7.43e+07 M⁻¹ s⁻¹. In addition, the Activity (µmol/sec/µmol), specific activity for mesyl-dFPR-ACC (µmol/sec/µmol) in assay [2] worked out at 3.03.

B1: A122N/G124S-FVIIa (enzyme)
chain: ANAFLEELRPGSLERECKEEQCSFEEAREIFKDAERTKLFWISYSDGDQCASSPCQNGGSCKDQLQSYICFCLPAFEGRNCETHKDDQLICVNENGGCEQYCSDHTGTKRSCRCHEGYSLLNDSVSCTPTVEYPCGKIPILEKRNASKPQGRIVGGKVCPKGECPWQVLLLVNGAQLCGGTLINTIWVVSAAHCFDKIKNWRNLIAVLGEHDLSEHDGDEQSRRVAQVIIPSTYVPGTTNHDIALLRLHQPVVLTDHVVPLCLPERTFSERTLAFVRFSLVSGWGQLLDRGATALELMVLNVPRLMTQDCLQQSRKVGDSPNITEYMFCAGYSDGSKDSCKGDSGGPHATHYRGTWYLTGIVSWGQGCATVGHFGVYTRVSQYIEWLQKLMRSEPRPGVLLRAPFP
As for B1, in assay [1], the kcat/KM (M^-1s^-1), TF-dependent assay came to 3.87e+07 M⁻¹ s⁻¹ and the kcat/KM, TF-independent assay is 3.4 M⁻¹ s⁻¹. In addition, the Activity (µmol/sec/µmol), specific activity for mesyl-dFPR-ACC (µmol/sec/µmol) in assay [2] was determined as 2.24.

B2: Q286R/H373F-FVIIa (enzyme)
chain: B1 chain with N122A, S124G, Q286R, H373F
B2: in assay [1], the kcat/KM (M^-1s^-1), TF-dependent assay amounted to 9.01e+07 M⁻¹ s⁻¹ and the kcat/KM, TF-independent assay was found to be 81.6 M⁻¹ s⁻¹. Also, in assay [2], the Activity (µmol/sec/µmol), specific activity for mesyl-dFPR-ACC (µmol/sec/µmol) was 0.78.

B3: H257S-FVIIa (enzyme)
chain: B1 chain with N122A, S124G, H257S
As to B3, in assay [1], the kcat/KM (M^-1s^-1), TF-dependent assay came out at 1.18e+08 M⁻¹ s⁻¹ and the kcat/KM, TF-independent assay came to 3.1 M⁻¹ s⁻¹. The molecule further gave an Activity (µmol/sec/µmol), specific activity for mesyl-dFPR-ACC (µmol/sec/µmol) in assay [2] of 2.64.

B4: H373F-FVIIa (enzyme)
chain: B1 chain with N122A, S124G, H373F
In the case of B4, in assay [1], the kcat/KM (M^-1s^-1), TF-dependent assay was 5.58e+07 M⁻¹ s⁻¹. The molecule also came in with an Activity (µmol/sec/µmol), specific activity for mesyl-dFPR-ACC (µmol/sec/µmol) in assay [2] of 1.17.

B5: Q286R/M298Q/Q366N-FVIIa (enzyme)
chain: B1 chain with N122A, S124G, Q286R, M298Q, Q366N
Consider B5, for which, in assay [1], the kcat/KM (M^-1s^-1), TF-dependent assay came to 1.17e+08 M⁻¹ s⁻¹ and the kcat/KM, TF-independent assay is 65.9 M⁻¹ s⁻¹. The Activity (µmol/sec/µmol), specific activity for mesyl-dFPR-ACC (µmol/sec/µmol) in assay [2] was found to be 2.35.

B6: H257S/Q286R/Q366V-FVIIa (enzyme)
chain: B1 chain with N122A, S124G, H257S, Q286R, Q366V
As to B6, in assay [1], the kcat/KM (M^-1s^-1), TF-dependent assay came to 7.1e+07 M⁻¹ s⁻¹ and the kcat/KM, TF-independent assay is 7.7 M⁻¹ s⁻¹. Moreover, the Activity (µmol/sec/µmol), specific activity for mesyl-dFPR-ACC (µmol/sec/µmol) in assay [2] worked out at 2.

B7: Q366V-FVIIa (enzyme)
chain: B1 chain with N122A, S124G, Q366V
As to B7, in assay [1], the kcat/KM (M^-1s^-1), TF-dependent assay came out at 5.48e+07 M⁻¹ s⁻¹ and the kcat/KM, TF-independent assay stood at 4.3 M⁻¹ s⁻¹. In addition, the Activity (µmol/sec/µmol), specific activity for mesyl-dFPR-ACC (µmol/sec/µmol) in assay [2] turned out to be 9.29.

B8: S222A/H257A/Q286R/Q366V-FVIIa (enzyme)
chain: B1 chain with N122A, S124G, S222A, H257A, Q286R, Q366V
Turning to B8, in assay [1], the kcat/KM (M^-1s^-1), TF-dependent assay stood at 1e+08 M⁻¹ s⁻¹ and the kcat/KM, TF-independent assay amounted to 12.5 M⁻¹ s⁻¹. The Activity (µmol/sec/µmol), specific activity for mesyl-dFPR-ACC (µmol/sec/µmol) in assay [2] is 2.43.

B9: Q286R/H257A-FVIIa (enzyme)
chain: B1 chain with N122A, S124G, H257A, Q286R
B9: the kcat/KM, TF-independent assay in assay [1] was 4.3 M⁻¹ s⁻¹ and 2.5 M⁻¹ s⁻¹. This molecule had an Activity (µmol/sec/µmol), specific activity for mesyl-dFPR-ACC (µmol/sec/µmol) in assay [2] of 1.96.

The record behind these values is US20090291890A1 (published 2009).
